Experimental data from the supplement of paper PMC9876800.

System: peptide library, one residue held at a place counted from the S/T acceptor
Test: relative phosphorylation of the sub-library (ratio to the mean residue at this position); higher = residue favoured
Conditions: human
In short: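 Each biotinylated degenerate peptide sub-library fixed one residue at one position around a central Ser/Thr and was incubated with a purified recombinant kinase, a human or orthologue construct, in 384-well plates. The 90 min reactions, under kinase-specific conditions, contained 50 μM peptide and 50 μM ATP spiked with γ-32P-ATP. Phosphorylation was read by phosphorimaging spots on streptavidin membranes and quantifying them by densitometry. Relative sub-library phosphorylation expresses each value as a ratio to the mean residue at that position.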

Sequence of CDK6, construct: Full length (Q00534 whole entry, looked up): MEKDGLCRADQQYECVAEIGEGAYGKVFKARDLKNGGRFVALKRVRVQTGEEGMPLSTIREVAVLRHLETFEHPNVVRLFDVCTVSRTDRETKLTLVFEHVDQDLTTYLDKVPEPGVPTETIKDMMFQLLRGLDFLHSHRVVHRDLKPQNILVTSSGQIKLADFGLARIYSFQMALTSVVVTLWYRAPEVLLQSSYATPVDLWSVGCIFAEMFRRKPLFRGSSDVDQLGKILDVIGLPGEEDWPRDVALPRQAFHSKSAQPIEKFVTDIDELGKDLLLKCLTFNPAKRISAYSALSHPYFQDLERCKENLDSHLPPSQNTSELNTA
Sequence of SIK1, construct: aa1-303 (P57059 1-303, looked up): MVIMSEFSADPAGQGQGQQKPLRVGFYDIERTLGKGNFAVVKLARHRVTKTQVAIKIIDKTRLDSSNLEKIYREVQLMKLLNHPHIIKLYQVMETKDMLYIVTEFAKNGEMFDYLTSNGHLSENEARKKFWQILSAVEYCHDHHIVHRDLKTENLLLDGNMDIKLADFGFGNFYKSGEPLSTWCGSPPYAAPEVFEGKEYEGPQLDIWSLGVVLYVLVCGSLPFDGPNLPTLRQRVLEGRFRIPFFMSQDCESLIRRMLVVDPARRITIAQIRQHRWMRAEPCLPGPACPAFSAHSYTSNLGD

SIK1, construct: aa1-303 (from UniProt P57059)
relative phosphorylation
Conditions	at +1	at +2	at +3	at +4	at -1	at -2	at -3	at -4	at -5
A fixed	0.56	1.1	0.618	0.641	0.972	1.89	0.589	0.941	1.01
D fixed	0.593	0.666	1.84	0.416	0.724	0.326	0.282	0.786	0.672
E fixed	0.718	0.524	0.523	0.334	0.46	0.304	0.309	0.966	0.746
F fixed	0.996	0.694	1.08	0.86	0.432	1.13	0.47	0.768	1.22
G fixed	0.493	0.841	0.595	0.697	2.75	0.851	0.382	1.01	0.737
H fixed	0.797	0.662	1.18	0.767	0.966	1.44	0.877	1.24	0.829
I fixed	1.18	1.06	0.907	2.22	0.289	0.451	0.24	0.457	0.721
K fixed	0.839	0.992	0.716	0.722	1.76	1.23	2.52	1.61	1.31
L fixed	1.11	0.626	0.992	4.05	0.722	0.35	0.343	0.535	1.7
M fixed	1.87	0.998	0.928	1.48	0.82	0.556	0.508	0.93	1.09
N fixed	1.2	1.09	2.97	0.688	1.43	0.809	0.587	1.01	0.894
P fixed	0.315	1.08	0.439	0.676	1.24	0.347	0.505	1.09	0.831
Q fixed	2.08	0.958	0.965	0.557	1.4	0.784	0.675	1.01	0.958
R fixed	1.16	1.33	0.659	0.518	1.22	1.35	6.57	1.86	1.65
V fixed	1.23	1.1	0.599	1.12	0.565	0.868	0.329	0.512	0.744
W fixed	0.868	2.13	0.916	0.695	0.516	2.72	1.25	1.24	1.05
Y fixed	0.982	1.14	1.08	0.564	0.732	1.59	0.569	1.03	0.832
pThr fixed	0.764	0.579	0.35	0.475	0.285	0.388	0.433	0.706	0.562
pTyr fixed	0.75	0.358	0.419	0.526	0.812	0.469	0.515	0.699	0.731

CDK6, construct: Full length (from UniProt Q00534)
relative phosphorylation
Conditions	at +1	at +2	at +3	at +4	at -1	at -2	at -3	at -4	at -5
A fixed	0.249	0.659	0.594	0.709	0.827	0.895	1.21	1.02	1.04
D fixed	0.113	0.259	0.209	0.504	0.48	0.316	0.476	0.884	0.866
E fixed	0.11	0.238	0.174	0.424	0.473	0.406	0.66	0.859	0.909
F fixed	0.353	0.811	0.529	0.795	0.908	1.1	0.978	0.852	0.979
G fixed	1.39	0.731	0.681	1.15	1.29	0.73	1.42	1.04	1.23
H fixed	0.295	1.24	1.06	1.23	1.11	1.16	1.2	1.11	1.18
I fixed	0.308	1.04	0.461	0.746	0.493	0.878	0.932	0.757	0.669
K fixed	0.303	1.83	3.16	1.64	1.23	0.788	1.03	1.35	1.57
L fixed	0.344	1.1	0.458	0.785	1.14	1.29	1.08	0.85	0.773
M fixed	0.328	1.01	0.581	0.891	1.28	1.5	1.03	0.867	0.736
N fixed	0.211	0.885	0.747	0.957	0.746	0.783	0.827	1.19	1.04
P fixed	11.6	0.494	0.862	1.01	1.26	2.2	1.15	1.07	1.24
Q fixed	0.258	0.905	0.702	1.03	1.04	0.894	0.865	1.05	0.99
R fixed	0.31	3.29	5	2.44	1.78	0.969	1.33	1.15	1.31
V fixed	0.315	0.956	0.513	0.724	0.64	0.835	0.886	0.673	0.68
W fixed	0.285	0.665	0.58	1.13	1.08	1.06	0.92	1.25	0.721
Y fixed	0.24	0.887	0.688	0.829	1.23	1.19	1.02	1.05	1.06
pThr fixed	0.326	0.502	0.433	0.336	0.25	0.548	0.725	0.882	0.934
pTyr fixed	0.339	0.36	0.486	0.349	0.324	0.798	0.81	1.12	1.34
